Data published in the DeepSol protein solubility set.

assay: soluble on expression in E. coli; label from the status in PepcDB or PDB records

| Sequence | soluble on expression in E. coli |
| --- | --- |
| MSLHSTPAPVASPLPSALDEAARLAVLHGLCLLDSPPDPVFDTIAAMAARMLGTEIALVSLVDEHRQWFKARVGLEAPETPRKHAFCAHALRSDDVLVIPDALLDPRFCNNPLVLGAPHIRFYAGAPLKLRDGHTIGTLCVIGTSPRAGLDAEQRIQLEGLRDLAVLRVENLRSSTYRNGPTGLPNRARFSEDLDAVLLQRTADSAATAIAVDLCGSDYFRDMVKALGWDYADGYVALAYKRLISKLPAGTALYRLDTTTFAFMVTTADPLRLSALCSKISKGFVAPLEHQGIPHTAVASIGAVLLETSYGAADTLRSLTTSVDVAREHCLTWSLYEREGHHHHHH | soluble |
| GPGSMLKFRLPYTHKKIGFGDSSRKVNSSLIGPDGTVNYLRGDILLPIWTRPTSTEGRLVVPRGAHRVPYKVAQVENCFFFFNARVREQVHFNHILLPDENLDHHYDAAAEVNCLLKYLQFLHPELREASAAVLRREVKHISTSITAHLRVNFQDVVRRREYLLLKQARSGQSEEEGDESDNEAVDADTAPNCGAQLGSSWETFAKEIIQAASKERARVVWRRNVEETGSDVRSGFWVTTIMRQ | not soluble |
| MISSGWMQEMEPIPEEGTEADGSEWGAMSDTAKRTMRKKEVYTSEQINTLVSTVPKEAVPQEWLVENQVVDPEMATSYLTESLAGPTSARGSSYSYSYESHYDNPPEEEYEHFTNDDGVHQMQKVTRVTKVTTTRSVRQVPVQSPYSNIDFDSSGLPTPSPVIDRDPSLEMMARMGGASDHDSEDRSAPPPAPASRFLHEDSGIPSAPGVPDVVDAGIGEVTVVWSAPLQSNGGEVRGYQIEMREFPDGEWESMGVDHLLKDTTCRVTNLTSHEVQFRVSAYGRTGFGPASNPSLPVKIPISETDLATSAGAPLAPGRPTVIAVDGQGVLLEWTPPVADVHSSPPQGYQVEYRVYGSRDWIVANEQLVQENVFTVESLRPNGVYEFRVRGKNQDGLGHPSMSSGGVAIRPAAPQRHVPARKVSESVQPPGQPQMVEVGDDVVKLEWAPSVQNARYIVEYREVGDPEWHTANYDPIVQNGIQVEGLHRNSTYEFCVISIVDNIASQPSETSDIIHLRPTCNTSALRPAPNILEAPEFLEVDGDKITICWLPAQSQLPVMGYDVEFRDLQQDDRWYKVNDQPVFACKMTVGDLIMDHDYQFRVLAHNASGCSQPSPPSDFVHIEPSTNRFSSDTMESPHLGHHDVVKYVEAERFGAVPLLQEEMVRESPPLPERDDSPPPLRRANNNVQWRDPSLKEVIEYLSSADKDKQLNASGYLQHLTYTDNQIKEETREYGGIPKLIALLRSDTPRIQKNACACLKNLSFGKENDANKLAVMEADGVRLIAEVLRTTHDASVKEEAAAALWNLSSADMLKPVILESATEILSQQVIAPVLAVGTSDPTRHFGSTLFKNSTGVLRNVSAASQQARRRLRDIPNLIEALVHFLTHAIQKSQVDSPTVENAVCLLRNLSYRIQEVVDPNYDPAAAHSSSSKNMKHVASPKPEKKKKDKEKKKDKNPKNIVTGPSVLWQPHVVKLYLKLLQDSSNIETLEASAGAIQNLAACQFPPSAEVRAAVRVEKGLPVLVELIRLPEDFVVCAVATALRNLAIDPRNRELIGKYALRDFLDKLPEPGSPRRSAISDQTIGAVLGILFEIVRSSAAYTKDVHELKGTDKLRALSRSYPTYSHRVCKYASQVLYVMWQHKELHDGFKRSGLKEADFYSGTARRGDSSTLARPISSQGRERPSMHQLDETLSSGGGYGTMESNNRAGTLRPASATSQTIQRRYDQVPRDGPVYSSVQKPSPRGGGGGGNIDDSWV | not soluble |
| MLRHKEPGSGSGGGVYWVDSQQKRYVPVKGDHVIGIVTAKSGDIFKVDVGGSEPASLSYLSFEGATKRNRPNVQAISSRLLEHHHHHH | not soluble |
| SLTTLKTMTRVQLGAMGEALAVDYLTSMGLRILNRNWRCRYGELDVIACDAATRTVVFVEVKTRTGDGYGGLAHAVTERKVRRLRRLAGLWLADQEERWAAVRIDVIGVRVGPKNSGRTPELTHLQGIG | soluble |
| MGSDKIHHHHHHMHFLEKYRFLVIGHRGLPSLCLENTVESFNATFNAGMPAVELDVQYTADGVPVVFHDFDLNRLAGRNSRIGDLKWDDLSKIRLASGSTIPRLSDVLSAFENFNFFIEIKIEKFDNAERKLTDDVARMVIDRSMNDNVVMISFNASAMRYVRDHYDGIITGLDFESPDEADDAVNNNVALPYYAIIDEVFDKIKERPVIPWTVDSYSTAVRLKEMGCRGIITNTGDRFISLIE | not soluble |
| MRALIRYEDVPSKLWTLPKMTDFWGIGKRTEKRLNKLGISSIKELTNADPLLLKQKLGTIGLQHFFHANGIDESNVRLEHHHHHH | not soluble |
